Source: patent US20130115256A1, “METHODS FOR TREATING OR PREVENTING VASCULAR GRAFT FAILURE” (priority 2010, published 2013)
Where no end group is shown, it is not given here.

Target: mitogen-activated protein kinase-activated protein kinase 2 (MK2), P49137
Experiment: cell-based or functional assay

mitogen-activated protein kinase-activated protein kinase 2 (MK2), P49137, sequence (P49137 46-400): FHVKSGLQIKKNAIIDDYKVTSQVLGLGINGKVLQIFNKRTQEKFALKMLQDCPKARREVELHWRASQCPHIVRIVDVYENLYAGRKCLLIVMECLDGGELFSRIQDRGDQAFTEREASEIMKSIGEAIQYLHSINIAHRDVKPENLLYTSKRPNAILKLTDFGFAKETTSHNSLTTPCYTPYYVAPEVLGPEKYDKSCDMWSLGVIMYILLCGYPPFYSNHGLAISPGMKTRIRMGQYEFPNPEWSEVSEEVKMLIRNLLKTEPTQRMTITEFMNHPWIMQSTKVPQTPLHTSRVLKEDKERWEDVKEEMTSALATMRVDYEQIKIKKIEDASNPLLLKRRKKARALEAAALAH

B1: MMI-0100 (…; SEQ ID NO: 1) (peptide)
peptide: YARAAARQARAKALARQLGVAA
modifications: not fully specified (C-terminus)
Work on B1 yielded a Percent Activity (radiometric kinase assay, peptide at 100 µM) of under 5 % activity.
